Consider one molecule from article doi:10.1101/411223 (bioRxiv, 2018).

The target of one series is T1, Kap114p (Δ899-956) (S. cerevisiae, UniProt P53067 1-1004, Δ899-956).
T1 sequence (looked up): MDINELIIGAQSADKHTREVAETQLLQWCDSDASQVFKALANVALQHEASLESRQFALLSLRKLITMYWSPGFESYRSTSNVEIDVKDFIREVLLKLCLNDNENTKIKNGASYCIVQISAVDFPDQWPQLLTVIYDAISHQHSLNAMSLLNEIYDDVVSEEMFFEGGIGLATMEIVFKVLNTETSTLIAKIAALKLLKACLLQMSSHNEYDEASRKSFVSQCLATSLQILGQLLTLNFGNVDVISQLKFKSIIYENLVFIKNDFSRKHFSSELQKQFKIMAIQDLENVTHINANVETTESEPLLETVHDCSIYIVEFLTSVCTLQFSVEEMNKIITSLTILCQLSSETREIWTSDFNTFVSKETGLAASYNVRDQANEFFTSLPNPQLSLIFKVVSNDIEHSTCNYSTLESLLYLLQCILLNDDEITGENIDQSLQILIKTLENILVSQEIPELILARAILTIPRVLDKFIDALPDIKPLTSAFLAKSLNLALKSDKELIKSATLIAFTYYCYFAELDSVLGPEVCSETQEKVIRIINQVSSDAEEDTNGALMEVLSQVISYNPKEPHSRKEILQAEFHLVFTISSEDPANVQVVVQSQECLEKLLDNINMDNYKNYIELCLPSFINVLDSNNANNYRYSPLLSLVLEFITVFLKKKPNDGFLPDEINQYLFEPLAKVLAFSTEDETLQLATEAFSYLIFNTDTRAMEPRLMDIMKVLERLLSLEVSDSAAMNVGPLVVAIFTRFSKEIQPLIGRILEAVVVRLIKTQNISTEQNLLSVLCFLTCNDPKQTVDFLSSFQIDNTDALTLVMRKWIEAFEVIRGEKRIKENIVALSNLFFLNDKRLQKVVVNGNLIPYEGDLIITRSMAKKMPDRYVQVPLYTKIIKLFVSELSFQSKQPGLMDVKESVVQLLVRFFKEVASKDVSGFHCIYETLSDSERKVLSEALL
Kind of series: ITC.

For series [1], the target named is T2, Kap114p (S. cerevisiae, UniProt P53067 1-1004).
T2 sequence (looked up): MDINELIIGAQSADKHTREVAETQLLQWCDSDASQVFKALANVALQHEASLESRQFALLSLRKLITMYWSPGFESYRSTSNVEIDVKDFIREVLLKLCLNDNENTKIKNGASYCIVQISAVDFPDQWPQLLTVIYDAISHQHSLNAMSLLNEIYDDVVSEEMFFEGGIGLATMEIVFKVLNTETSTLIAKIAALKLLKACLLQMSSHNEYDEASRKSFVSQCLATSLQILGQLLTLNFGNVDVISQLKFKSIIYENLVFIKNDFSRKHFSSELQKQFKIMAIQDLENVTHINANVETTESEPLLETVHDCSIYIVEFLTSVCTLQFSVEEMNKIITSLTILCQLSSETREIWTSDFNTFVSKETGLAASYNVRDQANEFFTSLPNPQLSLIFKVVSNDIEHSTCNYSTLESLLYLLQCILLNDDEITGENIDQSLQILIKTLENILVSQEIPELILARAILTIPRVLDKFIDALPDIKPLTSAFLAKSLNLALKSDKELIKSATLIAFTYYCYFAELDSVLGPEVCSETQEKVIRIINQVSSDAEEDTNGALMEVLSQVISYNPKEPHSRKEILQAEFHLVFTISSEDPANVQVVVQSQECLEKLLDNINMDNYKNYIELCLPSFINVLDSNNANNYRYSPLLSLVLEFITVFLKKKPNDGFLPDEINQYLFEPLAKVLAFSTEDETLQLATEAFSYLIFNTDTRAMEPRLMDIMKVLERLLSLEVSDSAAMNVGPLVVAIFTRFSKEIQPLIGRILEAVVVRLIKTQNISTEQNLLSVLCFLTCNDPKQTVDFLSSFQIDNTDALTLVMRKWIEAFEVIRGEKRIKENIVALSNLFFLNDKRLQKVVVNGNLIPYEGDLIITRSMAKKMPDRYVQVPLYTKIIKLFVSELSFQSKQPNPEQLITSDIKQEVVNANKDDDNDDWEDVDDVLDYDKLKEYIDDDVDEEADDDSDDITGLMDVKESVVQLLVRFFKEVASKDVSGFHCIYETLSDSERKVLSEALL
Kind of series: ITC. Background: Isothermal titration calorimetry measures the heat released or taken up as one component is titrated into another.

The target in series [2] is T2, Kap114p. Kind of series: AUC.
The series “AUC” deals with the molecule itself. Kind of series: AUC.

B1: yTBP (61-240) (domain or fragment, S. cerevisiae, UniProt P13393 61-240, looked up)
chain: SGIVPTLQNIVATVTLGCRLDLKTVALHARNAEYNPKRFAAVIMRIREPKTTALIFASGKMVVTGAKSEDDSKLASRKYARIIQKIGFAAKFTDFKIQNIVGSCDVKFPIRLEGLAFSHGTFSSYEPELFPGLIYRMVKPKIVLLIFVSGKIVLTGAKQREEIYQAFEAIYPVLSEFRKM
Consider B1, for which the binding result in the series with Kap114p (Δ899-956) is “binds”. Besides, the Kd (as a rule, the concentration at which binding is half-saturated) with Kap114p [1] was 6 nM. Also, the stoichiometry N (usually a count of units in the complex or per binding partner) with Kap114p [2] is 1; in “AUC”, 2.
